Results published in patent US12187772 (Regeneron, dated 2025).
Like-named read-outs stand apart in the source and are kept apart here.

T1: IL10 receptor (IL10 receptor subunit alpha IL10Ra and beta subunit IL10Rb) on Ramos/STAT3-Luc and … (UniProt Q13651 22-578; Q08334 20-325, limits assumed)
T1 sequence (looked up) 1: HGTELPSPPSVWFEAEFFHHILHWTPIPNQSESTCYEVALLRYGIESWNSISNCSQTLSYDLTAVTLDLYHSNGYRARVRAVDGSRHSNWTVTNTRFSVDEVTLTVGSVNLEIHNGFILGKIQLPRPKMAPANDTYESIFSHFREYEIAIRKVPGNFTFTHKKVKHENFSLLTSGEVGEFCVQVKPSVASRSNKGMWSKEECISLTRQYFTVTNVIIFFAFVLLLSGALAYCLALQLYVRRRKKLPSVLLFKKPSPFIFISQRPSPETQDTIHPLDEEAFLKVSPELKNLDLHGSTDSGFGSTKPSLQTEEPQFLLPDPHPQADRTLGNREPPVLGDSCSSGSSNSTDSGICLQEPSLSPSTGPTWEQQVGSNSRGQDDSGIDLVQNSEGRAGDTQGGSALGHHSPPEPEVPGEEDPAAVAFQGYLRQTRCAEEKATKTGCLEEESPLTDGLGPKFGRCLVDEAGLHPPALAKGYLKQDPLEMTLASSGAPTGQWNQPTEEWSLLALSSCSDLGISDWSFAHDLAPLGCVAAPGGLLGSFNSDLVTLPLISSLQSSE
T1 sequence (looked up) 2: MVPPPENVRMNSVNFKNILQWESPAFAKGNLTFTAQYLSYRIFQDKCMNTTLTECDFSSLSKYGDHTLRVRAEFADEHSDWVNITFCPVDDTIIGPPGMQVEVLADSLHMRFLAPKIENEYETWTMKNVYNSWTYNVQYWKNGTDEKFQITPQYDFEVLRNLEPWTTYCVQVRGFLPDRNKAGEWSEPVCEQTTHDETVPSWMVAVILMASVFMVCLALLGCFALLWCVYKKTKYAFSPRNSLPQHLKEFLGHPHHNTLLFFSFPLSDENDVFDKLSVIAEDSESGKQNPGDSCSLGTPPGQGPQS


Key:
Assay in all cases: cell-based or functional assay
[1] = molecular target: T1, IL10 receptor (IL10 receptor subunit …)
[2] = molecular target: T1, IL10 receptor (IL10 receptor subunit …); remark: listed apart in the source
[3] = molecular target: T1, IL10 receptor (IL10 receptor subunit …); remark: listed apart in the source

Row | Binder | EC50 [M] of luciferase activity, Ramos/STAT3-Luc reporter cells [2] [M] | EC50 [M] of luciferase activity, TF-1/STAT3-Luc reporter cells [2] [M] | Fold Induction of luciferase activity, Ramos/Stat3-Luc reporter cells [2] [fold] | Fold Induction of luciferase activity, TF-1/Stat3-Luc reporter cells [2] [fold] | Fold Induction of luciferase activity, Ramos/Stat3-Luc reporter cells [1] [fold] | Fold Induction of luciferase activity, TF-1/Stat3-Luc reporter cells [1] [fold] | also measured
1 | IL10M2 (hIL10-3XG4S-Fc; Fc is IgG4s) (Fc fusion) SPGQGTQSENSCTHFPGNLPNMLRDLRDAFSRVKTFFQMKDQLDNLLLKESLLEDFKGYLGCQALSEMIQFYLEEVMPQAENQDPDIKAHVNSLGENLKTLRLRLRRCHRFLPCENKSKAVEQVKNAFNKLQEKGIYKAMSEFDIFINYIEAYMTMKIRNGGGGSGGGGSGGGGSESKYGPPCPPCPAPPVAGPSVFLFPPKPKDTLMISRTPEVTCVVVDVSQEDPEVQFNWYVDGVEVHNAKTKPREEQFNSTYRVVSVLTVLHQDWLNGKEYKCKVSNKGLPSSIEKTISKAKGQPREPQVYTLPPSQEEMTKNQVSLTCLVKGFYPSDIAVEWESNGQPENNYKTTPPVLDSDGSFFLYSRLTVDKSRWQEGNVFSCSVMHEALHNHYTQKSLSLSLGK | 2.13e-10 | 5.15e-10 | 3.6 | 4.1 | – | – | EC50 of luciferase activity, Ramos/Stat3-Luc reporter cells (IL10M2 L1) [1]: 0.254 nM; EC50 of luciferase activity, Ramos/Stat3-Luc reporter cells (IL10M2 L2) [1]: 0.192 nM; EC50 of luciferase activity, TF-1/Stat3-Luc reporter cells (IL10M2 L1) [1]: 0.507 nM; EC50 of luciferase activity, TF-1/Stat3-Luc reporter cells (IL10M2 L2) [1]: 0.45 nM; Fold Induction of luciferase activity, Ramos/Stat3-Luc reporter cells (IL10M2 L1) [1]: 3.42 fold; Fold Induction of luciferase activity, Ramos/Stat3-Luc reporter cells (IL10M2 L2) [1]: 3.06 fold; Fold Induction of luciferase activity, TF-1/Stat3-Luc reporter cells (IL10M2 L1) [1]: 2.85 fold; Fold Induction of luciferase activity, TF-1/Stat3-Luc reporter cells (IL10M2 L2) [1]: 2.68 fold
2 | IL10M3 (hIL10-1XG4S-Fc; Fc is murine IgG1) (Fc fusion) SPGQGTQSENSCTHFPGNLPNMLRDLRDAFSRVKTFFQMKDQLDNLLLKESLLEDFKGYLGCQALSEMIQFYLEEVMPQAENQDPDIKAHVNSLGENLKTLRLRLRRCHRFLPCENKSKAVEQVKNAFNKLQEKGIYKAMSEFDIFINYIEAYMTMKIRNGGGGSVPRDCGCKPCICTVPEVSSVFIFPPKPKDVLTITLTPKVTCVVVDISKDDPEVQFSWFVDDVEVHTAQTQPREEQFNSTFRSVSELPIMHQDWLNGKEFKCRVNSAAFPAPIEKTISKTKGRPKAPQVYTIPPPKEQMAKDKVSLTCMITDFFPEDITVEWQWNGQPAENYKNTQPIMDTDGSYFVYSKLNVQKSNWEAGNTFTCSVLHEGLHNHHTEKSLSHSPGK | 2.19e-10 | 4.51e-10 | 3.2 | 3.4 | – | – | –
3 | mIgG1 (murine IgG1 Fc isotype control; control antibody with murine IgG1 sequence) (antibody, V domains shown) VH: QVQLQESGPGLVAPSQSLSITCTVSGFSLTTFGVHWVRQSPGKGLEWLGVIWADETTNYNSALMSRLSISKDNSKSQVFLKMNGLRTDDTAIYSCARSKVSYYFDYWGRGTTLTVSS VL: NIMMTQSPSSLPVSPGEKVTMNCKSSRSVLYSLNQKNYLAWYQQKPGQSPKLLIYWASTRESGVPDRFTGSGSGTDFSLTISSVQAEDLAVYYCHQYLSSWTFGGGTKLEIKR | – | – | 1.1 | 1.1 | – | – | –
4 | IL10M7 (hIL10-1XG4S-Fc; Fc is IgG4s) (Fc fusion) SPGQGTQSENSCTHFPGNLPNMLRDLRDAFSRVKTFFQMKDQLDNLLLKESLLEDFKGYLGCQALSEMIQFYLEEVMPQAENQDPDIKAHVNSLGENLKTLRLRLRRCHRFLPCENKSKAVEQVKNAFNKLQEKGIYKAMSEFDIFINYIEAYMTMKIRNGGGGSESKYGPPCPPCPAPPVAGPSVFLFPPKPKDTLMISRTPEVTCVVVDVSQEDPEVQFNWYVDGVEVHNAKTKPREEQFNSTYRVVSVLTVLHQDWLNGKEYKCKVSNKGLPSSIEKTISKAKGQPREPQVYTLPPSQEEMTKNQVSLTCLVKGFYPSDIAVEWESNGQPENNYKTTPPVLDSDGSFFLYSRLTVDKSRWQEGNVFSCSVMHEALHNHYTQKSLSLSLGK | – | – | – | – | – | – | EC50 of luciferase activity, Ramos/Stat3-Luc reporter cells [3]: 0.172 nM; EC50 of luciferase activity, TF-1/Stat3-Luc reporter cells [3]: 0.319 nM; Fold Induction of luciferase activity, Ramos/Stat3-Luc reporter cells [3]: 2.88 fold; Fold Induction of luciferase activity, TF-1/Stat3-Luc reporter cells [3]: 2.36 fold
5 | hIgG4s (human IgG4 Fc isotype control; Fc is IgG4s) (antibody, V domains shown) VH: EVQLVESGGGLVQPGGSLRLSCAASGFTLSTYAMTWVRQAPGKGLEWVSAINYRAANTWYADSVKGRFTISRDNSKNTLYLQMNSLRDEDTAVYYCAQDRVIIKDYYVMDVWGQGTTVTVSS VL: not shown | – | – | 1 | 1.4 | 1.01 | 0.99 | –
6 | IL10M8 (hIL10-Fc; Fc is IgG4s) (Fc fusion) SPGQGTQSENSCTHFPGNLPNMLRDLRDAFSRVKTFFQMKDQLDNLLLKESLLEDFKGYLGCQALSEMIQFYLEEVMPQAENQDPDIKAHVNSLGENLKTLRLRLRRCHRFLPCENKSKAVEQVKNAFNKLQEKGIYKAMSEFDIFINYIEAYMTMKIRNESKYGPPCPPCPAPPVAGPSVFLFPPKPKDTLMISRTPEVTCVVVDVSQEDPEVQFNWYVDGVEVHNAKTKPREEQFNSTYRVVSVLTVLHQDWLNGKEYKCKVSNKGLPSSIEKTISKAKGQPREPQVYTLPPSQEEMTKNQVSLTCLVKGFYPSDIAVEWESNGQPENNYKTTPPVLDSDGSFFLYSRLTVDKSRWQEGNVFSCSVMHEALHNHYTQKSLSLSLGK | – | – | – | – | – | – | EC50 of luciferase activity, Ramos/Stat3-Luc reporter cells [3]: 0.268 nM; EC50 of luciferase activity, TF-1/Stat3-Luc reporter cells [3]: 0.484 nM; Fold Induction of luciferase activity, Ramos/Stat3-Luc reporter cells [3]: 3.2 fold; Fold Induction of luciferase activity, TF-1/Stat3-Luc reporter cells [3]: 2.34 fold
7 | Recombinant human IL10 (obtained from Peprotech, Princeton NJ, Product #200-10) (ligand) SPGQGTQSENSCTHFPGNLPNMLRDLRDAFSRVKTFFQMKDQLDNLLLKESLLEDFKGYLGCQALSEMIQFYLEEVMPQAENQDPDIKAHVNSLGENLKTLRLRLRRCHRFLPCENKSKAVEQVKNAFNKLQEKGIYKAMSEFDIFINYIEAYMTMKIRN | 5.07e-11 | 7.05e-11 | 4.5 | 5.9 | 5.16 | 4.02 | EC50 of luciferase activity, Ramos/Stat3-Luc reporter cells [1]: 0.0482 nM; EC50 of luciferase activity, TF-1/Stat3-Luc reporter cells [1]: 0.063 nM
8 | hIgG1 (anti-FelD1 human IgG1 Fc isotype control) (antibody, V domains shown) VH: QVQLQESGPGLVKPSETLSLTCTVSGGSISSYYWSWIRQPPGKGLEWIGYIYYSGRTNYNPSLKSRVTISVDTSKNQFSLKLSSVTAADTAIYYCARHRVTRTADSFDYWGQGTLVTVSS VL: DIQMTQSPSSLSASVGDRVTITCQASQDINNYLNWYQQKTGKAPKFLIYDASNLETGVSSRFSGSGSGTDFTFTISSLQPEDVGTYYCHQYGDLPYTFGQGTKLEIKR | – | – | – | – | 1.1 | 1 | –
9 | IL10M1 (Fc-3XG4S-hIL10; Fc is IgG4s) (Fc fusion) ESKYGPPCPPCPAPPVAGPSVFLFPPKPKDTLMISRTPEVTCVVVDVSQEDPEVQFNWYVDGVEVHNAKTKPREEQFNSTYRVVSVLTVLHQDWLNGKEYKCKVSNKGLPSSIEKTISKAKGQPREPQVYTLPPSQEEMTKNQVSLTCLVKGFYPSDIAVEWESNGQPENNYKTTPPVLDSDGSFFLYSRLTVDKSRWQEGNVFSCSVMHEALHNHYTQKSLSLSLGKGGGGSGGGGSGGGGSSPGQGTQSENSCTHFPGNLPNMLRDLRDAFSRVKTFFQMKDQLDNLLLKESLLEDFKGYLGCQALSEMIQFYLEEVMPQAENQDPDIKAHVNSLGENLKTLRLRLRRCHRFLPCENKSKAVEQVKNAFNKLQEKGIYKAMSEFDIFINYIEAYMTMKIRN | 1.19e-10 | 1.18e-10 | 3.7 | 4.8 | – | – | EC50 of luciferase activity, Ramos/Stat3-Luc reporter cells (IL10M1 L1) [1]: 0.117 nM; EC50 of luciferase activity, Ramos/Stat3-Luc reporter cells (IL10M1 L2) [1]: 0.148 nM; EC50 of luciferase activity, TF-1/Stat3-Luc reporter cells (IL10M1 L1) [1]: 0.139 nM; EC50 of luciferase activity, TF-1/Stat3-Luc reporter cells (IL10M1 L2) [1]: 0.134 nM; Fold Induction of luciferase activity, Ramos/Stat3-Luc reporter cells (IL10M1 L1) [1]: 4.11 fold; Fold Induction of luciferase activity, Ramos/Stat3-Luc reporter cells (IL10M1 L2) [1]: 3.66 fold; Fold Induction of luciferase activity, TF-1/Stat3-Luc reporter cells (IL10M1 L1) [1]: 4.12 fold; Fold Induction of luciferase activity, TF-1/Stat3-Luc reporter cells (IL10M1 L2) [1]: 3.4 fold
